Reference: patent US7745574B2, “Compounds that regulate apoptosis” (The Burnham Institute, priority 2005, dated 2010)
Entries after “also recorded” stand apart in the source; their conditions may differ. Where no end group is shown, it is not given here. [ ]: non-standard residue; d: D form. Ahx = NCCCCCC(=O)O

Assays:
Bcl-B = target: T1, Bcl-B (Homo sapiens, UniProt Q9HD36); assay: Co-immunoprecipitation with myc-tagged Bcl-B in HEK293T cells; format: binding
T1 construct: expressed in transfected cells; host or cells: HEK293T
T1 sequence (Q9HD36 1-204): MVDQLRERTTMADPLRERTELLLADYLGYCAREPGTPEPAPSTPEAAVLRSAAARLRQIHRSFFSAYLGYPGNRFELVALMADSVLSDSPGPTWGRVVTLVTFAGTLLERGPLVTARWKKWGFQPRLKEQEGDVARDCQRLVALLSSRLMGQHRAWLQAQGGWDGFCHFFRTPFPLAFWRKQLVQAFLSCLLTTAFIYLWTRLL
Protocol: (§1) Nur77 peptide binds anti-apoptotic Bcl-2 family members. Nur77-peptide binds Bcl-B, Bfl-1, and Bcl-2, but not Mcl-1 and Bcl-xL. […] The expression vector for the GFP-Nur77/489-497 fusion was transfected into HEK293T cells together with or without the indicated expression vector for myc-tagged Bcl-2 family member. Cell lysates were prepared and analyzed for interaction of Nur77/489-497 with Bcl-2 family members by co-immunoprecipitation assay using anti-Myc antibody. Immunoprecipitates were then separated on SDS/PAGE and immunoblotted using anti-GFP antibody. […] Nur77/Bcl-2 interaction assays—Reporter gene assays using NurRE-tk-CAT in CV-1 cells, and GST pull-down assay were described previously (Li, et al. 2000 Science 289:1159-1164). For the mammalian two-hybrid assays, CV-1 cells were co-transfected with pcDNA-Gal4TAD-Nur77 or pcDNA-Gal4TAD-Nur77/ΔDBD and pcDNA-Gal4 DBD-Bcl-2/ΔTM along with a luciferase reporter gene driven by four copies of the Gal-4-binding site. The cells were harvested and reporter gene activity was measured. […] Immunoreactive products were detected by chemiluminescence with an enhanced chemiluminescence system (ECL) (Amersham).

Mcl-1 = Mcl-1 (Homo sapiens, UniProt Q07820); assay: Co-immunoprecipitation with myc-tagged Mcl-1 in HEK293T cells; format: binding
Sequence of Mcl-1 (Q07820 whole entry, species assumed): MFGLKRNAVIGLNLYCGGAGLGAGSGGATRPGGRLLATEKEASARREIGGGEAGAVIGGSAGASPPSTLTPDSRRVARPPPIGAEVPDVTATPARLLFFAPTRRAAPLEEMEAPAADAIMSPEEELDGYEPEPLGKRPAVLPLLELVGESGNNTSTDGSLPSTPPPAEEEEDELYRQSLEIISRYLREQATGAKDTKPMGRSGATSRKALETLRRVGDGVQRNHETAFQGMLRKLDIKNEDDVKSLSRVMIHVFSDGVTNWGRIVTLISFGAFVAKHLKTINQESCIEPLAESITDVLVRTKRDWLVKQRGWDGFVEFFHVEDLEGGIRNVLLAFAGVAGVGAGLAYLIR
Protocol: as §1

Bfl-1 = target: T2, Bfl-1 (Homo sapiens, UniProt Q16548); assay: Co-immunoprecipitation with myc-tagged Bfl-1 in HEK293T cells; format: binding
T2 construct: expressed in transfected cells; host or cells: HEK293T
T2 sequence (Q16548 1-175): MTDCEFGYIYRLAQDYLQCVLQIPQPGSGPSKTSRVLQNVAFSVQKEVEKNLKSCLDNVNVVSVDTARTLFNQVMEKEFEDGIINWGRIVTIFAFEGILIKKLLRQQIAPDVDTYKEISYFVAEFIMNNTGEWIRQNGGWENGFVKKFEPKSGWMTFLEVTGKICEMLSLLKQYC
Protocol: as §1

mitochondria = assay: Subcellular localization, colocalization with RFP-Mito; format: cell-based
Protocol: Subcellular localization assays—Cells were seeded onto cover-slips in 6-well plates overnight, then transiently transfected with GFP-fusion expression plasmids. After 16 hours, cells were washed with PBS and fixed in 4% paraformaldehyde. […] For cyt c staining, cells were incubated with monoclonal anti-cyt c IgG (PharMingen), followed by anti-mouse IgG conjugated with Cy5 (Amersham). Fluorescent images were collected and analyzed using a MRC-1024 MP laser-scanning confocal microscope (Bio-Rad). Subcellular fractionation assays were performed as described (Li, et al. 2000 Science 289:1159-1164). Briefly, cells (1×10^7 cells) suspended in 0.5 ml hypotonic buffer (5 mM Tris-HCl, pH 7.4, 5 mM KCl, 1.5 mM MgCl2, 0.1 mM EGTA, pH 8.0, and 1 mM DTT) were homogenized and cell extracts were centrifuged at 500×g for 5 min. The resulting supernatant was centrifuged at 10,000×g for 30 min at 4° C. to obtain the HM fraction. HM fraction was resuspended in 100 μl lysis buffer (10 mM Tris, pH 7.4, 150 mM NaCl, 1% Triton X-100, 5 mM EDTA, pH 8.0) for immunoblotting analysis.

Bcl-XL = Bcl-XL (Homo sapiens, UniProt Q07817); assay: Co-immunoprecipitation with myc-tagged Bcl-XL in HEK293T cells; format: binding
Sequence of Bcl-XL (Q07817 whole entry, species assumed): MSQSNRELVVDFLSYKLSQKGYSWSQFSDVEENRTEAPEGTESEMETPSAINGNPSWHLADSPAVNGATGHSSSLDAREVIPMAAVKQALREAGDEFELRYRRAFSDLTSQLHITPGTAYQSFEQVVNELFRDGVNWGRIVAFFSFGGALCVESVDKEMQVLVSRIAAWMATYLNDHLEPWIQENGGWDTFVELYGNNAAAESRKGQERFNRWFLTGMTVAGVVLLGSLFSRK
Protocol: as §1

[1] = Induction of apoptosis by Nur77 peptides, cell line not stated; format: cell-based
Protocol: Apoptosis assays—For nuclear morphological change analysis, cells were trypsinized, washed with PBS, fixed with 3.7% paraformaldehyde, and stained with DAPI (4,6-diamidino-2-phenylindole) (50 μg/ml) to visualize the nuclei by UV-microscopy. The percentages of apoptotic cells were determined by counting 300 GFP-positive cells, scoring cells having nuclear fragmentation and/or chromatin condensation.

Bcl-2 [2] = target: T3, Bcl-2 (Homo sapiens, UniProt P10415); assay: Co-immunoprecipitation with Bcl-2 in HEK293T cells; format: binding; design: expressed in transfected cells; host or cells: HEK293T
Protocol: as §1, with “measured. For Co-IP assays, HEK293T cells were transiently transfected with various expression plasmids using a modified calcium phosphate precipitation method (Wu et al, 1997) in the presence of caspase inhibitors (zVAD-fmk) to prevent degradation of Nur77 protein due to apoptosis. Cells were suspended in lysis buffer (50 mM Tris-HCl, PH7.4; 150 mM NaCl; 20 mM EDTA; 1% NP-40; 1 mM PMSF; 50 μg/ml Leupeptin; […]; 0.1 mM Na3VO4; and 1 mM DTT). Cells extracts were cleared by incubation with the Protein A/G plus Agarose beads (Santa Cruz) and then incubated with appropriate antibody and 30 μl of Protein A or G plus Agarose beads overnight at 4° C.” for “measured.”
Target sequence in this assay (P10415 whole entry): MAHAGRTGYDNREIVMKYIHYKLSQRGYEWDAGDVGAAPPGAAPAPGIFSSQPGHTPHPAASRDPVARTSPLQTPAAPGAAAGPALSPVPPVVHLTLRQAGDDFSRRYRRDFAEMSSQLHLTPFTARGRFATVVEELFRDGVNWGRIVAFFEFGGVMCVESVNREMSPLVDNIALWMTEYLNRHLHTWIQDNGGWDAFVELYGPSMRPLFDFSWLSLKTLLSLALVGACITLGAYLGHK

GST-Bcl-2 = target: T4, GST-Bcl-2 (Homo sapiens, UniProt P10415); assay: Immunoprecipitation of purified GST-Bcl-2 by anti-Bcl-2/BH3 antibody; format: biochemical
T4 construct: made in house
T4 sequence (P10415 whole entry): as above

[3] = test system: MDA-MB435 breast carcinoma cells; assay: MDA-MB435 tumors in SCID mice; format: in vivo
Protocol: Animal studies. Female SCID mice (6-week-old) (Tacomic) were injected with 10^6 MDA-MB435 breast carcinoma cells. Tumors were palpable on day 7. On days 10 and 13, test peptides (620 μg in 50 μL PBS) were injected into the tumor areas of 5 mice. Tumor volumes (1×w^2) were determined using calipers. No weight changes were observed. Established tumors in control mice were injected with test peptides and tumor tissues were excised and sectioned after 3 days. Tissues were fixed (10% buffered formalin), then rapidly paraffin-embedded. Apoptosis was detected by the TUNEL assay.

Bcl-2 [4] = target: T3, Bcl-2; assay: Competition assay of Nur77/ΔDBD binding with Bcl-2; design: expressed in transfected cells; host or cells: HEK293T
Protocol: Nur77/Bcl-2 interaction assays—Reporter gene assays using NurRE-tk-CAT in CV-1 cells, and GST pull-down assay were described previously (Li, et al. 2000 Science 289:1159-1164). For the mammalian two-hybrid assays, CV-1 cells were co-transfected with pcDNA-Gal4TAD-Nur77 or pcDNA-Gal4TAD-Nur77/ΔDBD and pcDNA-Gal4 DBD-Bcl-2/ΔTM along with a luciferase reporter gene driven by four copies of the Gal-4-binding site. The cells were harvested and reporter gene activity was measured. For Co-IP assays, HEK293T cells were transiently transfected with various expression plasmids using a modified calcium phosphate precipitation method (Wu et al, 1997) in the presence of caspase inhibitors (zVAD-fmk) to prevent degradation of Nur77 protein due to apoptosis. Cells were suspended in lysis buffer (50 mM Tris-HCl, PH7.4; 150 mM NaCl; 20 mM EDTA; 1% NP-40; 1 mM PMSF; 50 μg/ml Leupeptin; […] Aprotinin; 0.1 mM Na3VO4; and 1 mM DTT). Cells extracts were cleared by incubation with the Protein A/G plus Agarose beads (Santa Cruz) and then incubated with appropriate antibody and 30 μl of Protein A or G plus Agarose beads overnight at 4° C. […] Immunoreactive products were detected by chemiluminescence with an enhanced chemiluminescence system (ECL) (Amersham).
Target sequence in this assay (P10415 whole entry): as above

H460 lung cancer cells [5] = assay: Apoptosis in H460 lung cancer cells; format: cell-based; details: H460 cells; peptides conjugated with CPP, 10 μM
Bcl-2 [6] = target: T3, Bcl-2; assay: Immunoprecipitation of endogenous Bcl-2 by anti-Bcl-2/BH3 antibody in treated cells; format: cell-based; design: precipitated endogenous Bcl-2 in cells treated with L-NuBCP-9-r8 or D-NuBCP-9-r8; endogenous in cells
Target sequence in this assay (P10415 whole entry, species assumed): as the sequence (P10415 whole entry) above

H460 lung cancer cells [7] = assay: Apoptosis in H460 lung cancer cells; format: cell-based
Protocol: Bcl-2 siRNAs and antisense oligonucleotides-The target siRNA SMARTpools for Bcl-2 and Bak and the siRNA oligonucleotide for Nur77 (5'-[…] NO: 67) were purchased from Dharmacon Research Inc. Target or control siRNA were transfected at a final concentration of 200 nM into cells at 40% confluency using Oligofectamine reagent (Invitrogen) according to the manufacturer's recommendations. After 48 h, cells were analyzed. Bcl-2 antisense oligonucleotide targeting Bcl-2 and negative control oligonucleotides were obtained from Calbiochem. […] The percentages of apoptotic cells were determined by counting 300 GFP-positive cells, scoring cells having nuclear fragmentation and/or chromatin condensation. Cell culture. […] HEK293T embryonic kidney cells were grown in DME medium supplemented with 10% FBS. Jurkat and Jurkat cells stably expressing Bcl-2 were kindly provided by Dr. John Reed, and they were maintained in RPMI1640 medium.

Bcl-2 [8] = target: T3, Bcl-2; assay: Bcl-2 conformational change, anti-Bcl-2/BH3 antibody staining of HEK293T cells transfected with Bcl-2; format: cell-based; design: expressed in transfected cells; host or cells: HEK293T
Protocol: Such a Bcl-2 conformation is recognized by an anti-Bcl-2 antibody raised against the Bcl-2 BH3 domain. To determine whether NuBCP-9 induced a Bcl-2 conformational change, flow cytometric assays were conducted which HEK293T cells transfected with Bcl-2 were exposed to NuBCPs and subsequently stained with the anti-Bcl-2/BH3 antibody.
Target sequence in this assay (P10415 whole entry): as above

Substance	interaction with Bcl-B by co-immunoprecipitation (Bcl-B)	interaction with Mcl-1 by co-immunoprecipitation (Mcl-1)	interaction with Bfl-1 by co-immunoprecipitation (Bfl-1)	colocalization with RFP-Mito (mitochondria)	interaction with Bcl-XL by co-immunoprecipitation (Bcl-XL)	induction of apoptosis [1]	interaction with Bcl-2 by co-immunoprecipitation (Bcl-2 [2])	precipitation of GST-Bcl-2 protein by anti-Bcl-2/BH3 antibody (GST-Bcl-2)	growth of tumors ([3]; SCID mice, 620 μg injected into tumor areas on days 10 and 13, vs control NuBCP-9/AA-r8)	apoptosis of tumor cells in vivo ([3]; TUNEL assay)	binding of Nur77/ΔDBD with Bcl-2 in presence of peptide (Bcl-2 [4])	apoptotic effect (H460 lung cancer cells [5])	precipitation of endogenous Bcl-2 by anti-Bcl-2/BH3 antibody (Bcl-2 [6])	apoptotic function after Bcl-2 antisense oligonucleotides (H460 lung cancer cells [7]; Bcl-2 antisense oligonucleotides)	apoptotic effect after transfection of Bcl-2 siRNA (H460 lung cancer cells [7]; H460 cells, Bcl-2 siRNA vs control GFP siRNA)	Bcl-2 immunofluorescence by anti-Bcl-2/BH3 antibody (Bcl-2 [8]; flow cytometry)	Bcl-2 staining by anti-Bcl-2/BH3 antibody (Bcl-2 [8]; fluorescence microscopy)	Bcl-2 immunofluorescence in the presence of caspase inhibitor zVAD (Bcl-2 [8]; zVAD present)
GFP-Nur77/489-497: NuBCP-9 (Nur77/489-497) sequence cloned as a green fluorescence protein (GFP) fusion (FSRSLHSLL; also: fused to GFP)	interacts	not	interacts	colocalized extensively	not	apoptotic	precipitated by anti-Bcl-2 antibody only when Bcl-2 was co-expressed; also recorded: interacts											
acetyl------------FSRSLHSLLGXrrrrrrrr-amide (Ac-FSRSLHSLLG[Ahx][dR][dR][dR][dR][dR][dR][dR][dR]-NH2; SMILES CC(=O)N[C@@H](Cc1ccccc1)C(=O)N[C@@H](CO)C(=O)N[C@@H](CCCNC(=N)N)C(=O)N[C@@H](CO)C(=O)N[C@@H](CC(C)C)C(=O)N[C@@H](Cc1c[nH]cn1)C(=O)N[C@@H](CO)C(=O)N[C@@H](CC(C)C)C(=O)N[C@@H](CC(C)C)C(=O)NCC(=O)NCCCCCC(=O)N[C@H](CCCNC(=N)N)C(=O)N[C@H](CCCNC(=N)N)C(=O)N[C@H](CCCNC(=N)N)C(=O)N[C@H](CCCNC(=N)N)C(=O)N[C@H](CCCNC(=N)N)C(=O)N[C@H](CCCNC(=N)N)C(=O)N[C@H](CCCNC(=N)N)C(=O)N[C@H](CCCNC(=N)N)C(N)=O) [NuBCP-9-r8]								strong precipitation	dramatically suppressed	potently induced	abrogated	potently induce apoptosis	precipitated	attenuated	inhibited	strong Bcl-2 immunofluorescence	strongly stained	observed
